Source: the Human Domainome abundance scans (Beltran et al. 2025)
± gives the uncertainty stated by the source.

B1: Zinc finger MYM-type protein 3, residues 405 to 444; numbered along this chain, Q14202 (parent)
chain: DATRCSICQKTGEVLHEVSNGSVVHRLCSDSCFSKFRANK

Variants of: B1
Assay: abundance fitness (aPCA) (normalised: wild type 0, dead -1); higher = more abundant; growth selection in yeast, the domain comes from the species named
Conditions: Homo sapiens

DATRCSICQKTGEVLHEVSNGSVVHRLCSDSCFMKFRANK and DATRCSICQKTGEVLHEVSNGSVVHRLCSDSCFGKFRANK are within error of each other in abundance fitness: -0.039 ± 0.17 for the first, 0.137 ± 0.053 for the second.

Compared with DATRCSICQKTGEVLHEVSNGSVVHRLCSDSCFLKFRANK, DATRCSICQKTGEVLHEVSNGSVVHRLGSDSCFSKFRANK is lower in abundance fitness: -0.023 ± 0.061 for the first, -0.623 ± 0.054 for the second.

Going from DATRCSICQKTGEVLHEVSNGSVVHRLVSDSCFSKFRANK to DATRCSICQKTGEVLHEVSNGSVVHRLASDSCFSKFRANK, the abundance fitness rises from -0.808 ± 0.063 to -0.594 ± 0.058.

DATRCSIMQKTGEVLHEVSNGSVVHRLCSDSCFSKFRANK and DATRCSIWQKTGEVLHEVSNGSVVHRLCSDSCFSKFRANK are within error of each other in abundance fitness: -1.21 ± 0.11 for the first, -1.19 ± 0.095 for the second.

First: DATRCSIVQKTGEVLHEVSNGSVVHRLCSDSCFSKFRANK
Second: DATRCSICQKTGDVLHEVSNGSVVHRLCSDSCFSKFRANK
The abundance fitness of the first is lower: -1.11 ± 0.067 for the first, -0.2 ± 0.091 for the second.

DATRCSICQKTGKVLHEVSNGSVVHRLCSDSCFSKFRANK and DATRCSICQKTGEVLHEISNGSVVHRLCSDSCFSKFRANK are within error of each other in abundance fitness: -0.049 ± 0.075 for the first, -0.067 ± 0.11 for the second.

Going from DATRCSICQKTGEVLHELSNGSVVHRLCSDSCFSKFRANK to DATRCSICQKTGEVLHEVSNGSVVKRLCSDSCFSKFRANK, the abundance fitness rises from -0.157 ± 0.053 to -0.006 ± 0.061.

Going from DATRCSICQKTGEVLHEVSNGSVVVRLCSDSCFSKFRANK to DATRCSICQKTGEVLHEVSNGSVVIRLCSDSCFSKFRANK, the abundance fitness rises from -0.507 ± 0.059 to -0.216 ± 0.076.

Going from DATRCSICQKTGEVLHEVSNGSVVGRLCSDSCFSKFRANK to DATRCSICQKTGEVLHEVSNGSVVRRLCSDSCFSKFRANK, the abundance fitness falls from -0.164 ± 0.053 to -0.318 ± 0.054.

DATRCDICQKTGEVLHEVSNGSVVHRLCSDSCFSKFRANK and DATRCRICQKTGEVLHEVSNGSVVHRLCSDSCFSKFRANK are within error of each other in abundance fitness: -0.302 ± 0.091 for the first, -0.228 ± 0.056 for the second.

DATRCSICQKTGEVKHEVSNGSVVHRLCSDSCFSKFRANK and DATRCSICQKTGEVPHEVSNGSVVHRLCSDSCFSKFRANK are within error of each other in abundance fitness: 0.079 ± 0.065 for the first, -0.033 ± 0.069 for the second.

DATRCSICQKTGEVNHEVSNGSVVHRLCSDSCFSKFRANK and DATRCSICQKTGEVGHEVSNGSVVHRLCSDSCFSKFRANK are within error of each other in abundance fitness: -0.038 ± 0.15 for the first, -0.153 ± 0.056 for the second.

First: DATRCSICQKTGEVLHEVSNGSVVHRLCSDSCFSKFRAKK
Second: DATRCSICQKTGEVLHEVSNGSVVHRLCSDSCFSKFRAHK
The abundance fitness of the first is higher: 0.167 ± 0.083 for the first, -0.212 ± 0.087 for the second.

First: DATRCSICQKTGEVLHEVSNGSVVHRLCMDSCFSKFRANK
Second: DATRCSICQKTGEVLHEVSNGSVVHRLCSDFCFSKFRANK
The abundance fitness of the first is lower: -0.622 ± 0.086 for the first, -0.166 ± 0.083 for the second.

First: DATRCSICQKTGEVLHEVSNGSVVHRLCSDSCFSKFRDNK
Second: DATRCSICQKTGEVLHFVSNGSVVHRLCSDSCFSKFRANK
The abundance fitness of the first is higher: -0.139 ± 0.076 for the first, -0.606 ± 0.091 for the second.

Compared with DATRCSICQKTGEVLHPVSNGSVVHRLCSDSCFSKFRANK, DAARCSICQKTGEVLHEVSNGSVVHRLCSDSCFSKFRANK is higher in abundance fitness: -0.697 ± 0.086 for the first, -0.366 ± 0.057 for the second.

Compared with DARRCSICQKTGEVLHEVSNGSVVHRLCSDSCFSKFRANK, DAVRCSICQKTGEVLHEVSNGSVVHRLCSDSCFSKFRANK is lower in abundance fitness: -0.047 ± 0.052 for the first, -0.388 ± 0.056 for the second.

Going from DAGRCSICQKTGEVLHEVSNGSVVHRLCSDSCFSKFRANK to DATRCSICQKTGEVLHEVSNGSWVHRLCSDSCFSKFRANK, the abundance fitness falls from 0.091 ± 0.054 to -0.757 ± 0.076.

Compared with DATRCSICQKTGEVLHEVSNGSYVHRLCSDSCFSKFRANK, DATRCSICQKTGEVLHEVSNGEVVHRLCSDSCFSKFRANK is higher in abundance fitness: -0.166 ± 0.077 for the first, 0.006 ± 0.056 for the second.

Going from DATRCSICQKTGEVLHEVSNGPVVHRLCSDSCFSKFRANK to DATRCSICQKTGEVLHEVSNGYVVHRLCSDSCFSKFRANK, the abundance fitness falls from -0.039 ± 0.066 to -0.303 ± 0.094.

DATNCSICQKTGEVLHEVSNGSVVHRLCSDSCFSKFRANK and DATDCSICQKTGEVLHEVSNGSVVHRLCSDSCFSKFRANK are within error of each other in abundance fitness: 0.122 ± 0.081 for the first, 0 ± 0.081 for the second.

DATFCSICQKTGEVLHEVSNGSVVHRLCSDSCFSKFRANK and DATCCSICQKTGEVLHEVSNGSVVHRLCSDSCFSKFRANK are within error of each other in abundance fitness: 0.147 ± 0.11 for the first, -0.012 ± 0.073 for the second.

DATHCSICQKTGEVLHEVSNGSVVHRLCSDSCFSKFRANK and DATYCSICQKTGEVLHEVSNGSVVHRLCSDSCFSKFRANK are within error of each other in abundance fitness: -0.039 ± 0.08 for the first, 0.079 ± 0.072 for the second.

Compared with DATGCSICQKTGEVLHEVSNGSVVHRLCSDSCFSKFRANK, DATRCSICQKTGEVLHEVSNGSVVHRCCSDSCFSKFRANK is higher in abundance fitness: -0.219 ± 0.051 for the first, 0.032 ± 0.07 for the second.

Going from DATRCSICQKTGEVLHEVSNGSVVHRGCSDSCFSKFRANK to DATRCSICQKTGEVLHEVSNGSVVHRSCSDSCFSKFRANK, the abundance fitness falls from -0.331 ± 0.053 to -0.447 ± 0.062.

Compared with DATRCSICQKWGEVLHEVSNGSVVHRLCSDSCFSKFRANK, DATRCSICQKAGEVLHEVSNGSVVHRLCSDSCFSKFRANK is higher in abundance fitness: -0.627 ± 0.072 for the first, -0.27 ± 0.06 for the second.

First: DATRCSICQKTGEVLHEVSWGSVVHRLCSDSCFSKFRANK
Second: DATRCSICQKTGEVLHEVSDGSVVHRLCSDSCFSKFRANK
The abundance fitness of the first is lower: -0.415 ± 0.073 for the first, 0.153 ± 0.079 for the second.

Going from DATRCSICQKTGEVLHEVSVGSVVHRLCSDSCFSKFRANK to DATRCSICQKTGEVLHEVSCGSVVHRLCSDSCFSKFRANK, the abundance fitness falls from -0.296 ± 0.053 to -0.517 ± 0.11.

Compared with DATRCSICGKTGEVLHEVSNGSVVHRLCSDSCFSKFRANK, DATRCSICRKTGEVLHEVSNGSVVHRLCSDSCFSKFRANK is lower in abundance fitness: -0.16 ± 0.056 for the first, -0.288 ± 0.054 for the second.

Going from DATRCSICVKTGEVLHEVSNGSVVHRLCSDSCFSKFRANK to DATRCSICYKTGEVLHEVSNGSVVHRLCSDSCFSKFRANK, the abundance fitness rises from -0.803 ± 0.063 to -0.014 ± 0.27.

Compared with DATRCSICSKTGEVLHEVSNGSVVHRLCSDSCFSKFRANK, DATRCSICPKTGEVLHEVSNGSVVHRLCSDSCFSKFRANK is lower in abundance fitness: -0.129 ± 0.057 for the first, -0.606 ± 0.075 for the second.

Work on DATRCSICCKTGEVLHEVSNGSVVHRLCSDSCFSKFRANK yielded an abundance fitness of -0.215 ± 0.1.
